# Article PMC12480911, “Visualization of liquid-liquid phase transitions using a tiny G-quadruplex binding protein”
# Numbering of substitutions follows the chain as printed.
# T1: SERF2 (human, UniProt P84101 1-59)
# T1 sequence: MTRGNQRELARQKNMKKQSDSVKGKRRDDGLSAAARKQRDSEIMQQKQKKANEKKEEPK
# T2: SERF2 K25A (human, UniProt P84101 1-59, K25A)
# T2 sequence: T1 sequence with K25A
# T3: SERF2 K23A (human, UniProt P84101 1-59, K23A)
# T3 sequence: T1 sequence with K23A
# T4: SERF2 N-terminal domain (human, UniProt P84101 1-32)
# T4 chain: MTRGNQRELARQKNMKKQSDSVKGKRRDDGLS
# B1: TERRA23 (structured_RNA)
# RNA: UAGGGUUAGGGUUAGGGUUAGGG
# B2: (G4C2)4 RNA (structured_RNA)
# RNA: GGGGCCGGGGCCGGGGCCGGGGCC
# B3: TERRA12 (structured_RNA)
# RNA: UUAGGGUUAGGG
# B4: (UG4U)6 (structured_RNA)
# RNA: UGGGGUUGGGGUUGGGGUUGGGGUUGGGGUUGGGGU
# B5: Mark2 rG4 (structured_RNA)
# RNA: GAAGGGGAGGGGGCUGGGGGGGGGCAGGG
# B6: (GGGA)4 (structured_RNA)
# RNA: GGGAGGGAGGGAGGGA
# B7: (GGA)7 (structured_RNA)
# RNA: GGAGGAGGAGGAGGAGGAGGA
# B8: (AGG)5 (structured_RNA)
# RNA: AGGAGGAGGAGGAGG
# B9: Stxbp5 rG4 (structured_RNA)
# RNA: GGGAAGGGAAGGGGAGUGGG
# Tests used:
# [1] = biological target: T1, SERF2; assay: fluorescence polarization; settings: stated as sub-micromolar, FP/anisotropy: 20 mM NaPi pH 7.4, 100 mM KCl, 25 C (20-200 nM probe), NMR: same buffer, 4 C
# [2] = biological target: T2, SERF2 K25A; assay: EMSA; 5 uM each; minimally affected; FP/anisotropy: 20 mM NaPi pH 7.4, 100 mM KCl, 25 C (20-200 nM probe); NMR: same buffer, 4 C; settings: protein: recombinant; tags: His-SUMO removed; label: 6-FAM (FP); unlabeled (NMR, EMSA); intramolecular G4
# [3] = biological target: T3, SERF2 K23A; assay: as above; settings: protein: recombinant; tags: His-SUMO removed; label: 6-FAM (FP); unlabeled (NMR, EMSA); intramolecular G4
# [4] = biological target: T1, SERF2; assay: fluorescence polarization; 100 mM KCl; FP/anisotropy: 20 mM NaPi pH 7.4, 100 mM KCl, 25 C (20-200 nM probe); NMR: same buffer, 4 C; settings: protein: recombinant, tags: His-SUMO removed, AF488-labeled in some assays
# [5] = biological target: T4, SERF2 N-terminal domain; assay: as above; settings: protein: recombinant; label: 6-FAM (FP); unlabeled (NMR, EMSA); intramolecular G4
# [6] = biological target: T1, SERF2; assay: NMR (HSQC, imino 1H, STD); FP/anisotropy: 20 mM NaPi pH 7.4, 100 mM KCl, 25 C (20-200 nM probe); NMR: same buffer, 4 C; settings: protein: recombinant; tags: His-SUMO removed; AF488-labeled in some assays; dimeric G4 (2 strands)
# [7] = biological target: T1, SERF2; assay: fluorescence polarization; stated as sub-micromolar; FP/anisotropy: 20 mM NaPi pH 7.4, 100 mM KCl, 25 C (20-200 nM probe); NMR: same buffer, 4 C; settings: protein: recombinant; tags: His-SUMO removed; AF488-labeled in some assays; label: 6-FAM; G4
# [8] = biological target: T1, SERF2; assay: fluorescence polarization/anisotropy; stated as sub-micromolar; FP/anisotropy: 20 mM NaPi pH 7.4, 100 mM KCl, 25 C (20-200 nM probe); NMR: same buffer, 4 C; settings: protein: recombinant; tags: His-SUMO removed; AF488-labeled in some assays; label: Cy3; G4
# [9] = biological target: T1, SERF2; assay: EMSA; 10 uM RNA, 5-40 uM SERF2; FP/anisotropy: 20 mM NaPi pH 7.4, 100 mM KCl, 25 C (20-200 nM probe); NMR: same buffer, 4 C; settings: protein: recombinant; tags: His-SUMO removed; AF488-labeled in some assays; G4
molecule,measurement,setting,value
TERRA60,Kd,"[1]; AF488-SERF2, similar to TERRA23",< 1000 nM
polyG,Kd,[1],< 1000 nM
B1,binding result,[2],binds
same,binding result,[3],binds
same,Kd,"[4]; label: 6-FAM (FP), unlabeled (NMR, EMSA), intramolecular G4",300 ± 20 nM
same,binding signal,[5],~10 fold weaker than full length
B2,Kd,"[4]; label: 6-FAM, G4",880 ± 100 nM
B3,binding result,[6],binds
B4,Kd,"[4]; label: 6-FAM, G4",730 ± 250 nM
B5,Kd,"[4]; label: 6-FAM (FP), G4",4500 ± 500 nM
B6,Kd,[7],< 1000 nM
B7,Kd,[7],< 1000 nM
B8,Kd,[8],< 1000 nM
B9,binding result,[9],binds
